Measured values: publication PMC5769602, “Functional assays for the assessment of the pathogenicity of variants of GOSR2, an ER-to-Golgi SNARE involved in progressive myoclonus epilepsies” (Disease Models & Mechanisms, 2017)
Substitutions are numbered along the chain they refer to.

T1: Sed5 211-320 (SNARE domain) (yeast, UniProt Q01590 211-320)
T1 construct: Sed5, yeast ER-to-Golgi Qa-SNARE, SNARE domain, residues 211-320; also called Qa-SNARE; source: E. coli BL21 (DE3), purified (Ni2+-NTA, ion exchange)
T1 sequence (looked up): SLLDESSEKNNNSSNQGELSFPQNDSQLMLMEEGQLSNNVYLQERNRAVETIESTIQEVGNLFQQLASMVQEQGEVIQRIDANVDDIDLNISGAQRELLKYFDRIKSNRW

T2: Bet1 1-118 (yeast, UniProt P22804 1-118)
T2 construct: Bet1, yeast ER-to-Golgi Qc-SNARE, residues 1-118 (not only the SNARE domain); also called Qc-SNARE; source: E. coli BL21 (DE3), purified (Ni2+-NTA, ion exchange)
T2 sequence (looked up): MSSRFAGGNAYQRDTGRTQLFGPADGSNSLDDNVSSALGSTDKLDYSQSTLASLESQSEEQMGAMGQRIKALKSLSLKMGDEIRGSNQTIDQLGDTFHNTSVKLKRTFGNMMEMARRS

B1: Bos1 151-221 wild type (SNARE domain) (domain or fragment, Saccharomyces cerevisiae, UniProt P25385 151-221, looked up)
chain: LYQGLQKEQSVFERGNAQLDYILEMGQQSFENIVEQNKILSKVQDRMSNGLRTLGVSEQTITSINKRVFKD
notes: Bos1, Saccharomyces cerevisiae, SNARE domain, residues 151-221; Forms homo-oligomers of unstated size as the isolated SNARE domain; also called Bos1 wt; wild-type Bos1; source: E. coli BL21 (DE3), purified (Ni2+-NTA, ion exchange)
B2: Bos1 151-221 p.Gly176Asp (domain or fragment, Saccharomyces cerevisiae, UniProt P25385 151-221, looked up)
chain: B1 chain with G26D
notes: Bos1, Saccharomyces cerevisiae, SNARE domain, residues 151-221, with the designed Gly176Asp mutation; also called Bos1 p.Gly176Asp; source: E. coli BL21 (DE3), purified (Ni2+-NTA, ion exchange)
B3: Bos1 151-221 p.Gly176Trp (domain or fragment, Saccharomyces cerevisiae, UniProt P25385 151-221, looked up)
chain: B1 chain with G26W
notes: Bos1, Saccharomyces cerevisiae, SNARE domain, residues 151-221, with Gly176Trp (orthologous to GOSR2 p.Gly144Trp); also called Bos1 p.Gly176Trp; source: E. coli BL21 (DE3), purified (Ni2+-NTA, ion exchange)
B4: Bos1 151-221 p.Arg196del (domain or fragment, Saccharomyces cerevisiae, UniProt P25385 151-221, looked up)
chain: LYQGLQKEQSVFERGNAQLDYILEMGQQSFENIVEQNKILSKVQDMSNGLRTLGVSEQTITSINKRVFKD
notes: Bos1, Saccharomyces cerevisiae, SNARE domain, residues 151-221, with arginine 196 deleted (orthologous to GOSR2 p.Lys164del); also called Bos1 p.Arg196del; source: E. coli BL21 (DE3), purified (Ni2+-NTA, ion exchange)

Columns and labels:
[1] = biological target: the molecule itself; assay: SEC; individual purified SNARE domains of the Bos1 variants (oligomeric state of single proteins); Superdex 75, PBS with 200 mM NaCl
[2] = biological target: T1, Sed5 211-320 (SNARE domain); assay: SEC; quaternary SNARE complexes assembled from equal amounts of purified Sed5 (211-320), Bet1 (1-118), Sec22 (126-186) and one Bos1 (151-221) variant, incubated overnight; Superdex 75, PBS with 200 mM NaCl; conditions: both partners purified
Bet1 1-118 [3] = biological target: T2, Bet1 1-118; assay: fluorescence polarisation; fluorescence anisotropy over time; 500 nM OG-labelled Sec22 126-186 C131OG mixed with 2.7 uM Sed5 211-320, Bet1 1-118 and Bos1 151-221 or its mutants; PBS, 25°C; conditions: both partners purified
Bet1 1-118 [4] = biological target: T2, Bet1 1-118; assay: SEC; quaternary SNARE complexes assembled from equal amounts of purified Sed5 (211-320), Bet1 (1-118), Sec22 (126-186) and one Bos1 (151-221) variant, incubated overnight; Superdex 75, PBS with 200 mM NaCl; conditions: both partners purified
[5] = biological target: T1, Sed5 211-320 (SNARE domain); assay: fluorescence polarisation; fluorescence anisotropy over time; 500 nM OG-labelled Sec22 126-186 C131OG mixed with 2.7 uM Sed5 211-320, Bet1 1-118 and Bos1 151-221 or its mutants; PBS, 25°C; conditions: both partners purified

Binder	binding result [1]	binding result [2]	binding result (Bet1 1-118 [3])	binding result (Bet1 1-118 [4])	binding result [5]
B1	binds	binds	binds		
B2	binds	binds		binds	
B3			binds		binds
B4	binds	binds		binds	
